# In article PMC2952845:
# Read-outs that look alike come from different tables or passages of the source.
# Experiments:
# Assay in all cases: EMSA
# [1] = target: T1, Runx1 Runt domain (CBF alpha2);CBFbeta (human?;human?, UniProt Q01196;Q13951 50-183;2-135, |)
# [2] = target: T1, Runx1 Runt domain (CBF alpha2);CBFbeta; remark: listed apart in the source
# [3] = target: T1, Runx1 Runt domain (CBF alpha2);CBFbeta; remark: listed apart in the source
# [4] = target: T1, Runx1 Runt domain (CBF alpha2);CBFbeta; remark: listed apart in the source
# T1 sequence (Q01196 50-183, chain 1 of 2): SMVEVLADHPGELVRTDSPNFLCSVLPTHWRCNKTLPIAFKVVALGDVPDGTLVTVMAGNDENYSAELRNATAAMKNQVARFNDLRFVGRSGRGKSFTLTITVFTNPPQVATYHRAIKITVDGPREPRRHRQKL
# T1 sequence (Q13951 2-135, chain 2 of 2): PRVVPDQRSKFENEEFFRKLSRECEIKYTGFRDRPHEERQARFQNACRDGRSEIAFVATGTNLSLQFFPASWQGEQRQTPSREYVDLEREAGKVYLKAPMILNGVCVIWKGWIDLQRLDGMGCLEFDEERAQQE
binder,measurement,setting,value
Crystal palindrome (dsDNA) DNA 1: AGATGTGCGGTCGACCGCAAAC DNA 2: AGGTTTGCGGTCGACCGCACAT,binding result,[1],binds
GM450Δ452 (dsDNA) DNA 1: AGATGTGTGGCTGCGTAGAAAC DNA 2: AGGTTTCTACGCAGCCACACAT,binding result,[2],binds
WT GM450 (dsDNA) DNA 1: AGATGTGTGGCTGCCCACAAAC DNA 2: AGGTTTGTGGGCAGCCACACAT,binding result,[3],binds
GM450Δ443 (dsDNA) DNA 1: AGATCTCTCACTGCCCACAAAC DNA 2: AGGTTTGTGGGCAGTGAGAGAT,binding result,[2],binds
GM450Δ443/452 (dsDNA) DNA 1: AGATCTCTCACTGCGTAGAAAC DNA 2: AGGTTTCTACGCAGTGAGAGAT,binding result,[4],no binding
